Where no end group is shown, it is not given here. [ ]: non-standard residue; d: D form. pY = N[C@@H](Cc1ccc(OP(=O)(O)O)cc1)C(=O)O

As usually defined, the Kd is the constant that tells how readily two partners part at equilibrium.

For one test, the target named is T1, DLC-1 peptide (pY442) (Homo sapiens).
T1 chain: CSRLSI[pY]DNVPG
The test can be described thus: SPR. For orientation: Surface plasmon resonance follows binding to a sensor surface in real time, without labels.

Test [1] deals with T2, DLC-1 peptide (nonphosphorylated) (Homo sapiens).
T2 chain: CSRLSIYDNVPG
The test can be described thus: SPR.

B1: Tensin2 SH2 domain 1135-1248 (protein)
chain: DTSKFWYKPHLSRDQAIALLKDKDPGAFLIRDSHSFQGAYGLALKVATPPPSAQPWKGDPVEQLVRHFLIETGPKGVKIKGCPSEPYFGSLSALVSQHSISPISLPCCLRIPSK
For the molecule B1, the results for the Kd (in the test with DLC-1 peptide (pY442); in test [1]) were ~31 nM and ~248 nM, respectively.
